Experimental data: article PMC6090299, “Quantitative Analysis of Interaction Between CADM1 and Its Binding Cell-Surface Proteins Using Surface Plasmon Resonance Imaging” (Frontiers in Cell and Developmental Biology, 2018)

T1: CADM4-Fc (human (by the printed RefSeq entry))
T1 sequence (Q8NFZ8 whole entry, looked up): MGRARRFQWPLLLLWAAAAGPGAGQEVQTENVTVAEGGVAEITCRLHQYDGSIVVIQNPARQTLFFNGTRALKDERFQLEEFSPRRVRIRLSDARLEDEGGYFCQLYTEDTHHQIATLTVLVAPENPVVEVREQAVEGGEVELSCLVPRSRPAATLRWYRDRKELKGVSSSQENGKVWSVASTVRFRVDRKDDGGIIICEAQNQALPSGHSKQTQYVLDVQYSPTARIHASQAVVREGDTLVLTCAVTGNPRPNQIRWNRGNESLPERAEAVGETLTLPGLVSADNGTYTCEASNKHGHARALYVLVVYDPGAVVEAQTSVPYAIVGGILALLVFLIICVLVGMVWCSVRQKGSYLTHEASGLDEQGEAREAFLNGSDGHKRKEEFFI

T2: CADM2-Fc (human (by the printed RefSeq entry), UniProt Q8N3J6-1 25-367)
T2 construct: signal peptide in the construct; CADM2 extracellular domain, NP_001161146, 1-367 a.a; Human IgG2-Fc fragment from pFUSE-hIgG2-Fc1; source: FreeStyle 293-F cells, transiently transfected, purified from the supernatant (Protein G Sepharose); not shown: Fc (human IgG2), C-terminal, kept
T2 sequence (looked up): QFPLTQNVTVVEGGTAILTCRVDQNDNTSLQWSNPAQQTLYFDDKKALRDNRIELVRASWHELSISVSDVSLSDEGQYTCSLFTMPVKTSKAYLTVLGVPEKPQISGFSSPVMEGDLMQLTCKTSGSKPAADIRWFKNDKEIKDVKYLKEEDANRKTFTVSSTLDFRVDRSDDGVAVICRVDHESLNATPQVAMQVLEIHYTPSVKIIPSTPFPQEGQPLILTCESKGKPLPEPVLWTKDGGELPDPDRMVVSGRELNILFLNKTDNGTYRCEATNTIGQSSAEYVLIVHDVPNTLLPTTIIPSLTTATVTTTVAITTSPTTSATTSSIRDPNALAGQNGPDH

B1: CADM1-Fc (Fc fusion, human (by the printed RefSeq entry), UniProt Q9BY67-1 45-374, looked up)
chain: QNLFTKDVTVIEGEVATISCQVNKSDDSVIQLLNPNRQTIYFRDFRPLKDSRFQLLNFSSSELKVSLTNVSISDEGRYFCQLYTDPPQESYTTITVLVPPRNLMIDIQKDTAVEGEEIEVNCTAMASKPATTIRWFKGNTELKGKSEVEEWSDMYTVTSQLMLKVHKEDDGVPVICQVEHPAVTGNLQTQRYLEVQYKPQVHIQMTYPLQGLTREGDALELTCEAIGKPQPVMVTWVRVDDEMPQHAVLSGPNLFINNLNKTDNGTYRCEASNIVGKAHSDYMLYVYDPPTTIPPPTTTTTTTTTTTTTILTIITDSRAGEEGSIRAVDH
notes: signal peptide in the construct; CADM1 extracellular domain, NP_055148, 1-374 a.a; Human IgG2-Fc fragment from pFUSE-hIgG2-Fc1; Glycosylated; also called cell adhesion molecule 1 extracellular domain fused with Fc; source: FreeStyle 293-F cells, transiently transfected, purified from the supernatant (Protein G Sepharose); not shown: Fc (human IgG2), C-terminal, kept
B2: CADM3-Fc (Fc fusion, human (by the printed RefSeq entry), UniProt Q8N126-1 25-330, looked up)
chain: NLSQDDSQPWTSDETVVAGGTVVLKCQVKDHEDSSLQWSNPAQQTLYFGEKRALRDNRIQLVTSTPHELSISISNVALADEGEYTCSIFTMPVRTAKSLVTVLGIPQKPIITGYKSSLREKDTATLNCQSSGSKPAARLTWRKGDQELHGEPTRIQEDPNGKTFTVSSSVTFQVTREDDGASIVCSVNHESLKGADRSTSQRIEVLYTPTAMIRPDPPHPREGQKLLLHCEGRGNPVPQQYLWEKEGSVPPLKMTQESALIFPFLNKSDSGTYGCTATSNMGSYKAYYTLNVNDPSPVPSSSSTYH
notes: signal peptide in the construct; CADM3 extracellular domain, NP_001120645, 1-330 a.a; Human IgG2-Fc fragment from pFUSE-hIgG2-Fc1; source: FreeStyle 293-F cells, transiently transfected, purified from the supernatant (Protein G Sepharose); not shown: Fc (human IgG2), C-terminal, kept

Experiments:
[1] = molecular target: T1, CADM4-Fc (human (by the printed RefSeq entry)); assay: SPR; SPR imaging (OpenPlex); the 10 IgSF-Fc proteins (7-24 μM) spotted in hexaplicate and immobilised by amine coupling; 2.4 μM CADM1-Fc injected for 4 min; 25°C; PBS with 0.2% BSA and 0.02% Tween20, 50 μL/min; signal of normal human IgG subtracted
CADM2-Fc = molecular target: T2, CADM2-Fc; assay: as above; details: both partners purified
[2] = molecular target: the molecule itself; assay: as above
[3] = molecular target: the molecule itself; assay: SPR; SPR imaging (OpenPlex); the 10 IgSF-Fc proteins spotted and immobilised by amine coupling; CADM2-Fc, CADM3-Fc or CADM4-Fc injected as analyte; 25°C; PBS with 0.2% BSA and 0.02% Tween20, 50 μL/min
CADM1-Fc = molecular target: B1; assay: SPR; SPR imaging (OpenPlex); the 10 IgSF-Fc proteins (7-24 μM) spotted in hexaplicate and immobilised by amine coupling; 2.4 μM CADM1-Fc injected for 4 min; 25°C; PBS with 0.2% BSA and 0.02% Tween20, 50 μL/min; signal of normal human IgG subtracted; details: both partners purified

| Binder | Kd [1] [nM] | koff [1] [s⁻¹] | kon [1] [M⁻¹ s⁻¹] | Kd (CADM2-Fc) [nM] | koff (CADM2-Fc) [s⁻¹] | kon (CADM2-Fc) [M⁻¹ s⁻¹] | Kd [2] [nM] | koff [2] [s⁻¹] | kon [2] [M⁻¹ s⁻¹] | binding result [3] | Kd (CADM1-Fc) [nM] | koff (CADM1-Fc) [s⁻¹] | kon (CADM1-Fc) [M⁻¹ s⁻¹] |
| --- | --- | --- | --- | --- | --- | --- | --- | --- | --- | --- | --- | --- | --- |
| B1 | 193 | 0.019 | 99000 | 86.8 | 0.0064 | 74000 | 114 | 0.0073 | 64000 |  |  |  |  |
| B2 |  |  |  |  |  |  |  |  |  | binds | 80.1 | 0.007 | 84000 |
